Test results published in the supplement of paper PMC10567573.

B1: TRAF3IP2 (parent)
chain: PGQPLPGASVRGLHPVQKVILNYP

Variants of: B1
Experiment: protein stability index of a GFP-peptide fusion (GPS, HEK-293T) (PSI 1-6); higher = more stable
Conditions: c terminus: a fixed tail appended
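Also: lentivirally expressed fusions sorted by FACS into six bins by GFP to DsRed ratio, PSI derived from sequencing read proportions per bin multiplied by bin number.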

Variant	protein stability index
PGNPLPGASVRGLHPVQKVILNYP [Q3N]	3.28
PGPPLPGASVRGLHPVQKVILNYP [Q3P]	3.57
PGRPLPGASVRGLHPVQKVILNYP [Q3R]	3.11
PGSPLPGASVRGLHPVQKVILNYP [Q3S]	3.97
PGTPLPGASVRGLHPVQKVILNYP [Q3T]	3.12
PGVPLPGASVRGLHPVQKVILNYP [Q3V]	3.42
PGWPLPGASVRGLHPVQKVILNYP [Q3W]	2.31
PGYPLPGASVRGLHPVQKVILNYP [Q3Y]	2.41
PGQALPGASVRGLHPVQKVILNYP [P4A]	3.17
PGQCLPGASVRGLHPVQKVILNYP [P4C]	2.73
PGQDLPGASVRGLHPVQKVILNYP [P4D]	3.03
PGQELPGASVRGLHPVQKVILNYP [P4E]	3.52
PGQFLPGASVRGLHPVQKVILNYP [P4F]	2.92
PGQGLPGASVRGLHPVQKVILNYP [P4G]	2.22
PGQHLPGASVRGLHPVQKVILNYP [P4H]	3.08
PGQILPGASVRGLHPVQKVILNYP [P4I]	2.41
PGQKLPGASVRGLHPVQKVILNYP [P4K]	2.69
PGQLLPGASVRGLHPVQKVILNYP [P4L]	2.66
PGQMLPGASVRGLHPVQKVILNYP [P4M]	3
PGQNLPGASVRGLHPVQKVILNYP [P4N]	2.06
PGQQLPGASVRGLHPVQKVILNYP [P4Q]	3.29
PGQRLPGASVRGLHPVQKVILNYP [P4R]	3.21
PGQSLPGASVRGLHPVQKVILNYP [P4S]	2.6
PGQTLPGASVRGLHPVQKVILNYP [P4T]	4.15

Variant	protein stability index
PGQVLPGASVRGLHPVQKVILNYP [P4V]	2.69
PGQWLPGASVRGLHPVQKVILNYP [P4W]	2.84
PGQYLPGASVRGLHPVQKVILNYP [P4Y]	2.77
PGQPAPGASVRGLHPVQKVILNYP [L5A]	3.31
PGQPCPGASVRGLHPVQKVILNYP [L5C]	2.94
PGQPDPGASVRGLHPVQKVILNYP [L5D]	3.84
PGQPEPGASVRGLHPVQKVILNYP [L5E]	3.15
PGQPFPGASVRGLHPVQKVILNYP [L5F]	2.29
PGQPGPGASVRGLHPVQKVILNYP [L5G]	3.56
PGQPHPGASVRGLHPVQKVILNYP [L5H]	3.42
PGQPIPGASVRGLHPVQKVILNYP [L5I]	3.34
PGQPKPGASVRGLHPVQKVILNYP [L5K]	3.25
PGQPMPGASVRGLHPVQKVILNYP [L5M]	3.44
PGQPNPGASVRGLHPVQKVILNYP [L5N]	3.66
PGQPPPGASVRGLHPVQKVILNYP [L5P]	3.64
PGQPQPGASVRGLHPVQKVILNYP [L5Q]	3.95
PGQPRPGASVRGLHPVQKVILNYP [L5R]	3.19
PGQPSPGASVRGLHPVQKVILNYP [L5S]	3.43
PGQPTPGASVRGLHPVQKVILNYP [L5T]	3.88
PGQPWPGASVRGLHPVQKVILNYP [L5W]	2.94
PGQPYPGASVRGLHPVQKVILNYP [L5Y]	3.48
PGQPLAGASVRGLHPVQKVILNYP [P6A]	3.49
PGQPLCGASVRGLHPVQKVILNYP [P6C]	2.08
PGQPLDGASVRGLHPVQKVILNYP [P6D]	3.37

Variant	protein stability index
PGQPLEGASVRGLHPVQKVILNYP [P6E]	3.69
PGQPLFGASVRGLHPVQKVILNYP [P6F]	3.17
PGQPLGGASVRGLHPVQKVILNYP [P6G]	2.5
PGQPLHGASVRGLHPVQKVILNYP [P6H]	3.44
PGQPLIGASVRGLHPVQKVILNYP [P6I]	2.79
PGQPLKGASVRGLHPVQKVILNYP [P6K]	2.54
PGQPLLGASVRGLHPVQKVILNYP [P6L]	2.42
PGQPLMGASVRGLHPVQKVILNYP [P6M]	3.09
PGQPLNGASVRGLHPVQKVILNYP [P6N]	3.21
PGQPLQGASVRGLHPVQKVILNYP [P6Q]	3.46
PGQPLRGASVRGLHPVQKVILNYP [P6R]	3.63
PGQPLSGASVRGLHPVQKVILNYP [P6S]	3.14
PGQPLTGASVRGLHPVQKVILNYP [P6T]	3.21
PGQPLVGASVRGLHPVQKVILNYP [P6V]	3.46
PGQPLWGASVRGLHPVQKVILNYP [P6W]	2.53
PGQPLYGASVRGLHPVQKVILNYP [P6Y]	2.72
PGQPLPAASVRGLHPVQKVILNYP [G7A]	3.02
PGQPLPCASVRGLHPVQKVILNYP [G7C]	2.59
PGQPLPDASVRGLHPVQKVILNYP [G7D]	3.22
PGQPLPEASVRGLHPVQKVILNYP [G7E]	3.55
PGQPLPFASVRGLHPVQKVILNYP [G7F]	3.15
PGQPLPHASVRGLHPVQKVILNYP [G7H]	3.2
PGQPLPIASVRGLHPVQKVILNYP [G7I]	3.05
PGQPLPKASVRGLHPVQKVILNYP [G7K]	2.76

Variant	protein stability index
PGQPLPLASVRGLHPVQKVILNYP [G7L]	3.44
PGQPLPMASVRGLHPVQKVILNYP [G7M]	3
PGQPLPNASVRGLHPVQKVILNYP [G7N]	2.68
PGQPLPPASVRGLHPVQKVILNYP [G7P]	3.04
PGQPLPQASVRGLHPVQKVILNYP [G7Q]	3.12
PGQPLPRASVRGLHPVQKVILNYP [G7R]	2.69
PGQPLPSASVRGLHPVQKVILNYP [G7S]	2.76
PGQPLPTASVRGLHPVQKVILNYP [G7T]	3.31
PGQPLPVASVRGLHPVQKVILNYP [G7V]	3.26
PGQPLPWASVRGLHPVQKVILNYP [G7W]	2.09
PGQPLPYASVRGLHPVQKVILNYP [G7Y]	2.26
PGQPLPGCSVRGLHPVQKVILNYP [A8C]	2.27
PGQPLPGDSVRGLHPVQKVILNYP [A8D]	3.19
PGQPLPGESVRGLHPVQKVILNYP [A8E]	3.36
PGQPLPGFSVRGLHPVQKVILNYP [A8F]	2.51
PGQPLPGGSVRGLHPVQKVILNYP [A8G]	3.24
PGQPLPGHSVRGLHPVQKVILNYP [A8H]	2.97
PGQPLPGISVRGLHPVQKVILNYP [A8I]	2.83
PGQPLPGKSVRGLHPVQKVILNYP [A8K]	2.62
PGQPLPGLSVRGLHPVQKVILNYP [A8L]	3.21
PGQPLPGMSVRGLHPVQKVILNYP [A8M]	2.97
PGQPLPGNSVRGLHPVQKVILNYP [A8N]	3.47
PGQPLPGPSVRGLHPVQKVILNYP [A8P]	3.08
PGQPLPGQSVRGLHPVQKVILNYP [A8Q]	2.59

Variant	protein stability index
PGQPLPGRSVRGLHPVQKVILNYP [A8R]	2.89
PGQPLPGSSVRGLHPVQKVILNYP [A8S]	3.27
PGQPLPGTSVRGLHPVQKVILNYP [A8T]	3.65
PGQPLPGVSVRGLHPVQKVILNYP [A8V]	2.39
PGQPLPGYSVRGLHPVQKVILNYP [A8Y]	2.71
PGQPLPGAAVRGLHPVQKVILNYP [S9A]	3.99
PGQPLPGADVRGLHPVQKVILNYP [S9D]	3.08
PGQPLPGAEVRGLHPVQKVILNYP [S9E]	2.92
PGQPLPGAFVRGLHPVQKVILNYP [S9F]	2.21
PGQPLPGAGVRGLHPVQKVILNYP [S9G]	3.2
PGQPLPGAHVRGLHPVQKVILNYP [S9H]	3.5
PGQPLPGAIVRGLHPVQKVILNYP [S9I]	2.16
PGQPLPGAKVRGLHPVQKVILNYP [S9K]	3.19
PGQPLPGALVRGLHPVQKVILNYP [S9L]	3.09
PGQPLPGAMVRGLHPVQKVILNYP [S9M]	2.68
PGQPLPGANVRGLHPVQKVILNYP [S9N]	3.33
PGQPLPGAPVRGLHPVQKVILNYP [S9P]	3.58
PGQPLPGAQVRGLHPVQKVILNYP [S9Q]	2.86
PGQPLPGARVRGLHPVQKVILNYP [S9R]	2.22
PGQPLPGATVRGLHPVQKVILNYP [S9T]	3.48
PGQPLPGAVVRGLHPVQKVILNYP [S9V]	3.27
PGQPLPGAWVRGLHPVQKVILNYP [S9W]	2.97
PGQPLPGAYVRGLHPVQKVILNYP [S9Y]	2.62
PGQPLPGASARGLHPVQKVILNYP [V10A]	3.52

Variant	protein stability index
PGQPLPGASCRGLHPVQKVILNYP [V10C]	3.29
PGQPLPGASDRGLHPVQKVILNYP [V10D]	2.96
PGQPLPGASERGLHPVQKVILNYP [V10E]	3.19
PGQPLPGASFRGLHPVQKVILNYP [V10F]	2.36
PGQPLPGASGRGLHPVQKVILNYP [V10G]	3.54
PGQPLPGASHRGLHPVQKVILNYP [V10H]	2.79
PGQPLPGASIRGLHPVQKVILNYP [V10I]	2.84
PGQPLPGASKRGLHPVQKVILNYP [V10K]	2.89
PGQPLPGASLRGLHPVQKVILNYP [V10L]	2.61
PGQPLPGASMRGLHPVQKVILNYP [V10M]	3
PGQPLPGASNRGLHPVQKVILNYP [V10N]	3.5
PGQPLPGASPRGLHPVQKVILNYP [V10P]	3.22
PGQPLPGASQRGLHPVQKVILNYP [V10Q]	3.05
PGQPLPGASRRGLHPVQKVILNYP [V10R]	2.57
PGQPLPGASSRGLHPVQKVILNYP [V10S]	3
PGQPLPGASTRGLHPVQKVILNYP [V10T]	2.87
PGQPLPGASWRGLHPVQKVILNYP [V10W]	2.62
PGQPLPGASYRGLHPVQKVILNYP [V10Y]	3
PGQPLPGASVAGLHPVQKVILNYP [R11A]	2.6
PGQPLPGASVCGLHPVQKVILNYP [R11C]	3.3
PGQPLPGASVDGLHPVQKVILNYP [R11D]	3.71
PGQPLPGASVEGLHPVQKVILNYP [R11E]	3.19
PGQPLPGASVFGLHPVQKVILNYP [R11F]	2.06
PGQPLPGASVGGLHPVQKVILNYP [R11G]	2.73

Variant	protein stability index
PGQPLPGASVHGLHPVQKVILNYP [R11H]	3.51
PGQPLPGASVIGLHPVQKVILNYP [R11I]	2.96
PGQPLPGASVKGLHPVQKVILNYP [R11K]	2.88
PGQPLPGASVLGLHPVQKVILNYP [R11L]	2.25
PGQPLPGASVMGLHPVQKVILNYP [R11M]	2.75
PGQPLPGASVNGLHPVQKVILNYP [R11N]	2.96
PGQPLPGASVPGLHPVQKVILNYP [R11P]	3.79
PGQPLPGASVQGLHPVQKVILNYP [R11Q]	3.79
PGQPLPGASVSGLHPVQKVILNYP [R11S]	3.12
PGQPLPGASVTGLHPVQKVILNYP [R11T]	3.2
PGQPLPGASVVGLHPVQKVILNYP [R11V]	2.84
PGQPLPGASVWGLHPVQKVILNYP [R11W]	2.08
PGQPLPGASVYGLHPVQKVILNYP [R11Y]	3.4
PGQPLPGASVRALHPVQKVILNYP [G12A]	3.69
PGQPLPGASVRCLHPVQKVILNYP [G12C]	2.72
PGQPLPGASVRDLHPVQKVILNYP [G12D]	3.64
PGQPLPGASVRELHPVQKVILNYP [G12E]	3.87
PGQPLPGASVRFLHPVQKVILNYP [G12F]	2.3
PGQPLPGASVRHLHPVQKVILNYP [G12H]	2.7
PGQPLPGASVRILHPVQKVILNYP [G12I]	2.63
PGQPLPGASVRKLHPVQKVILNYP [G12K]	3.2
PGQPLPGASVRLLHPVQKVILNYP [G12L]	2.12
PGQPLPGASVRMLHPVQKVILNYP [G12M]	2.85
PGQPLPGASVRNLHPVQKVILNYP [G12N]	2.94

Variant	protein stability index
PGQPLPGASVRPLHPVQKVILNYP [G12P]	3.14
PGQPLPGASVRQLHPVQKVILNYP [G12Q]	3.42
PGQPLPGASVRRLHPVQKVILNYP [G12R]	2.76
PGQPLPGASVRSLHPVQKVILNYP [G12S]	3.39
PGQPLPGASVRVLHPVQKVILNYP [G12V]	2.43
PGQPLPGASVRWLHPVQKVILNYP [G12W]	1.96
PGQPLPGASVRYLHPVQKVILNYP [G12Y]	2.74
PGQPLPGASVRGAHPVQKVILNYP [L13A]	3.38
PGQPLPGASVRGCHPVQKVILNYP [L13C]	1.83
PGQPLPGASVRGDHPVQKVILNYP [L13D]	3.68
PGQPLPGASVRGEHPVQKVILNYP [L13E]	3.9
PGQPLPGASVRGFHPVQKVILNYP [L13F]	2.91
PGQPLPGASVRGGHPVQKVILNYP [L13G]	3.31
PGQPLPGASVRGHHPVQKVILNYP [L13H]	3.75
PGQPLPGASVRGIHPVQKVILNYP [L13I]	3.1
PGQPLPGASVRGKHPVQKVILNYP [L13K]	3.5
PGQPLPGASVRGMHPVQKVILNYP [L13M]	3.59
PGQPLPGASVRGNHPVQKVILNYP [L13N]	3.36
PGQPLPGASVRGPHPVQKVILNYP [L13P]	3.84
PGQPLPGASVRGQHPVQKVILNYP [L13Q]	3.69
